According to doi:10.1101/2024.10.24.620088:
Values joined by “and” are separate entries in the source; they are usually repeats but may differ in a detail not shown here. Equal values may be shown once. Read-outs that look alike come from different tables or passages of the source.

How the values were obtained:
Assay in all cases: cryo-EM structure
[1] = target: DUF4297 from Bacillus ap. HMH5848 (Bacillus ap. HMH5848)
[2] = target: DUF4297 from Bacillus ap. HMH5848 (Bacillus ap. HMH5848); remark: listed apart in the source
[3] = target: HerA from Bacillus ap. HMH5848 (Bacillus ap. HMH5848)
[4] = target: HerA from Bacillus ap. HMH5848 (Bacillus ap. HMH5848); remark: listed apart in the source

stoichiometry N [1]	stoichiometry N [2]	stoichiometry N [3]	stoichiometry N [4]	Substance
12 and 4 and 6	12			DUF4297 from Bacillus ap. HMH5848 (natural protein)
		6	6	HerA from Bacillus ap. HMH5848 (enzyme)
